Reference: article PMC8939299, “Molecular characterization of a novel GSTO2 of Fasciola hepatica and its roles in modulating murine macrophages” (Parasite, 2022)

Tested on: O=C1O[C@H]([C@@H](O)CO)C(=O)C1=O
Assay: purified protein
Details: 1 mM GSH fixed, DHA 0-0.25 mM (Figure 3 legend: 0-2.5 mM), potassium phosphate, pH 7.5, 25 °C

rGSTO2 (Fasciola hepatica) was tested, and the Km was 287 µM.
